Laboratory results published in the supplement of paper PMC12764529.
± gives the half width of the 95% confidence interval.

Assays:
[1] = folding stability dG unfold (combined trypsin and chymotrypsin); higher = more stable
Outline: (§1)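 How resistant each design was to proteolysis was captured as K50, inferred by Bayesian fitting of sequencing counts. Unfolding free energy was then derived relative to a sequence-predicted unfolded-state K50 and a shared folded-state K50, per protease or combined. Digestion used trypsin and chymotrypsin at 11 threefold-diluted concentrations plus a no-protease condition, on mini-proteins under 80 residues without cysteine in a PA-tagged cDNA display construct. Designs were kept only when AlphaFold2 dimer inter-PAE was above 15.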

[2] = folding stability dG unfold from chymotrypsin proteolysis; higher = more stable
Outline: as §1

[3] = folding stability dG unfold from trypsin proteolysis; higher = more stable
Outline: as §1

Sequence	folding stability dG unfold [1] [kcal/mol]	folding stability dG unfold [2] [kcal/mol]	folding stability dG unfold [3] [kcal/mol]
SAGGAKELFEAIPGAEAEYDPETGTLRVRFEFPDYTVLVEIPTDKETGEVLGVRVYVIDKDGVPHEIDLSAG [r5_367_TrMRF]	4.52 ± 0.23	4.81 ± 0.15	3.26 ± 0.24
SAGGALENAPITVNVTITITLKDEKGNTPVITIPVTATVTSQAEADALVNATAAALEAALGATVTVASAGGS [r8_149_JUSTAS]	1.95 ± 0.096	2.04 ± 0.14	1.65 ± 0.12
SAGGAMSSPVGTVTLTSPAGETVTITVYPGKTEVTTRPPDGSVTVTSLADKSVEEVIAELKAEGYEVLSSAG [r5_613_JUSTAS]	3.25 ± 0.039	2.99 ± 0.03	4 ± 0.18
SAGGAPIEAAPDEEITLTFTLTVRFRGPDGAEGTATFRLTVPVKVEPVPPVPEPRVFRLPDGSEVTLGSAGG [r13_401_TrMRF]	1.64 ± 0.12	1.66 ± 0.12	1.48 ± 0.057
SAGGAPLPLPPDVPVTLTFTEVTFSLNESGETGYTVSTTTVPVPVEPVPPVPLPVLVVWPDGSAVALLSAGG [r13_401_JUSTAS]	1.89 ± 0.059	2.23 ± 0.051	1.3 ± 0.067
SAGGAPLSSSEEVEALLKEGGAEFVSKTSVTITEPGVPVTVNVYTIRVKDPSSDKWTLVEVPSSLLSSAGGS [r16_271_JUSTAS]	0.409 ± 0.15	0.429 ± 0.2	0.192 ± 0.12
SAGGAPVGKFKFELNFPELGENVRSVEATVDPVKGTVTVNFELPGSGKPLTLTVPVKLVSPDNPELFSAGGS [r8_193_TrMRF]	0.613 ± 0.082	0.759 ± 0.12	0.37 ± 0.059
SAGGASVDRELTDPVTGDKIEVTITRLPDGSWLIEVTVTDAEGKTTKYPKTFPPGSYTPEDTIDFTKDSAGG [r13_959_JUSTAS]	2.1 ± 0.16	2.14 ± 0.12	1.92 ± 0.2
SAGGATAVIADFPLPEGTLRVAVVKKDDKPYVFVFPSGISAEELKKILEEKLGVDIKKVEVKTVSTADESAG [r5_181_TrMRF]	1.7 ± 0.093	2.04 ± 0.022	1.11 ± 0.053
SAGGATITLEPGTFTIEFPENELVIPVPVPEERPDVSPEEAAREIVEELREKYGLPPPEDLTVELAPSAGGS [r8_402_JUSTAS]	0.273 ± 0.22	0.184 ± 0.27	0.299 ± 0.13
SAGGATVTVTEYPLPTGTLYRVTVTVGSKTTTFTVPPGVSLEEIKEIVEKEVGVDLTTVTTTTVSTAAASAG [r5_181_JUSTAS]	3.56 ± 0.14	3.83 ± 0.062	3.06 ± 0.14
SAGGAVELRIVVRRTRPDPLTGRPVEEELTLTVPVDLDPERGVSAAEVARALAAALPDEVREVRAEPGSAGG [r13_335_TrMRF]	0.632 ± 0.12	0.705 ± 0.08	0.51 ± 0.17
SAGGAVLTTEDPEKISLTFYSPEGAVLGSEEIEVEPPEIVLTNVPPEEAAAIKKENPDVPISLNPALGSAGG [r13_235_JUSTAS]	0.685 ± 0.071	0.456 ± 0.029	0.956 ± 0.03
SAGGDEIVDRIKQAFHNFGYPVRIDDISPPNGKIYIRISPAMRENMKPAIIEIPFPGIKDITIEMWPSAGGS [r8_318_TrROS]	1.53 ± 0.17	1.49 ± 0.14	1.25 ± 0.14
SAGGDIKILSIQFMPPGWIMIVAEIPLENGEKWHISIMIRITPEARNHPPGQEYEFRIDINISIVPRSAGGS [r16_787_TrROS]	4.5 ± 0.32	4.91 ± 0.41	3.5 ± 0.26
SAGGDLLKELARELGFNVEIERDPDDGTIRITIRPPEGHYVTITIKIDYDPENGKLKLEIDEIKVSPPSAGG [r13_936_TrROS]	3.7 ± 0.17	3.63 ± 0.14	3.68 ± 0.17

Sequence	folding stability dG unfold [1] [kcal/mol]	folding stability dG unfold [2] [kcal/mol]	folding stability dG unfold [3] [kcal/mol]
SAGGDMYFVTVEIWRPREPDPDGEWKWEPIPITFPFDPDQAEDFAKEIINILQKDGYHVKIKVIPMPSAGGS [r8_10_TrROS]	3.17 ± 0.43	3.75 ± 0.28	2.56 ± 0.1
SAGGDPPDIYVQIEHKNGKTRTIPFDNMSIENIAEELRDHNYDEVKISVFRMGKPIETFKIKIPPGDSAGGS [r16_700_TrROS]	3.08 ± 0.52	2.95 ± 0.15	3.7 ± 0.27
SAGGDTFLMLHPHPVKDNGKDKPYYHIMVMKITEVEPDNGKPRLKMEMKMIHIPADDPDALKEAGIPISAGG [r13_670_TrROS]	1.77 ± 0.16	1.52 ± 0.21	1.81 ± 0.1
SAGGDTIMIPIRGKGSLEQAKEWAKEIAREFYREGWKNIKISVWVYDKENGEPVYRKEAEIPIKPGDSAGGS [r8_33_TrROS]	1.94 ± 0.22	2.14 ± 0.18	1.63 ± 0.11
SAGGDVKEFDSPEDLNKALPALKNGKEVHIRVEMRMPQPDPDGEPRQYPMEFWYTIKLKNGELEIEPISAGG [r13_835_TrROS]	0.827 ± 0.07	0.988 ± 0.091	0.593 ± 0.071
SAGGDWRPVEFTIKILIPKGMTADELIEEIKEIARNLGLTIKPISVEVYPVPNKYYVEINVEIWIPPNSAGG [r13_351_TrROS]	4.17 ± 0.33	4.54 ± 0.19	2.57 ± 0.14
SAGGDWRTITFNFEVDVPPGQTPEQLIEKAEEIVEELARMFPDVKIEVTDIEVDEDKVYIDVEIRVPDSAGG [r13_805_TrROS]	3.22 ± 0.16	3.45 ± 0.097	2.6 ± 0.17
SAGGDYWVFKIEITHRNPNGEPEKWDIFIWFDPDDPDMPAKELADWIAKYLAPNNGYEVKIEEIYPVSAGGS [r8_101_TrROS]	4.7 ± 0.31	5 ± 0.1	3.25 ± 0.15
SAGGEDELRPITPEELKALFDRLAAAHGLESEILEVEEPEDVVIVTARIRHGDTVLEVTVAFPVAKDPSAGG [r13_652_TrMRF]	2.91 ± 0.15	2.97 ± 0.1	2.65 ± 0.14
SAGGEDGKWREQTFTIENPEDGKKAKIEIEYNPENGYASIEFPGNGKKIDVPFKSLEDILDAIKKIGISAGG [r13_439_TrROS]	0.0961 ± 0.12	0.0872 ± 0.16	-0.02 ± 0.074
SAGGEEEKVVLTPEEIERLLKELAEALGLEVTITEIEVEEDYVTITVEIKVDGKTLTLTLKLRIEPEPSAGG [r13_652_TrROS_Hall]	5.14 ± 0.36	5.23 ± 0.15	4 ± 0.42
SAGGEEGKPKWVEMWIFIPKEILEDIKQGEPLTVKQIAQKIGFPPNIEVKIIEREGDYIYVRITIPVSAGGS [r16_679_TrROS]	4.66 ± 0.27	4.66 ± 0.11	4.53 ± 0.25
SAGGEEKEKLREAIRAALDEAIKEGKKIKKIVIVASPEKKEEIAKLLEEEGLLENLEIEVVSPEELKSAGGS [r16_164_TrROS_Hall]	1.27 ± 0.25	0.665 ± 0.14	1.74 ± 0.072
SAGGEERERIRRLVRELRRRGYKRITADELARLLGREITEEELEALREAGLIELEEEETVEVVLPEEESAGG [r13_188_TrROS_Hall]	4.15 ± 0.14	4.26 ± 0.085	4.02 ± 0.16
SAGGEIEIDENGFIRMTLYDPATGYKIEAEFRILPDGTIEITKIKIEPLPPPPPPKVFVLDENGELVESAGG [r13_646_TrROS_Hall]	2.77 ± 0.38	3.1 ± 0.086	3.31 ± 0.2
